Common to all, as to experiment: cell-based or functional assay
The target in assay [1] is CadC-wtTM-GCN4 (E. coli) (UniProt P23890).
The target of assay [2] is CadC-artTM-GCN4 (E. coli) (UniProt P23890).
The target in assay [3] is DsRed (UniProt Q9U6Y8).
Chain of DsRed (Q9U6Y8 whole entry): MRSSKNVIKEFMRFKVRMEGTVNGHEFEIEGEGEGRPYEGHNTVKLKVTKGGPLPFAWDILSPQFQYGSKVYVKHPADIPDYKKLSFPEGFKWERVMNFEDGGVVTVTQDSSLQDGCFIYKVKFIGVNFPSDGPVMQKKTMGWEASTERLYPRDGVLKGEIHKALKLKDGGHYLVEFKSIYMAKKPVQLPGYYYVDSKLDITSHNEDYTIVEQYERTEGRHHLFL

“CadC-wtTM-GCN4 (from UniProt P23890 1-187; P03069 253-274)”: in assay [1], the fold change in GFP expression compared to the construct without GCN4 (pCadBA-GFP reporter, E. coli, flow cytometry) was 50 fold.

“CadC-artTM-GCN4 (from UniProt P23890 1-154; P03069 253-274)” displayed a fold change in GFP expression compared to the construct without GCN4 (pCadBA-GFP reporter, E. coli, flow cytometry) in assay [2] of 300 fold. Consider “LexA-DBD-Lam4 (from UniProt P0A7C2 1-87)”, for which, in assay [3], the deGFP signal strength with DsRed in the medium (cell-free system, pLexA-deGFP reporter 300 ng/reaction, LexA-Lam4 plasmid 800 ng/reaction) worked out at 4850 a.u; the deGFP signal strength without DsRed in the medium (baseline; cell-free system, pLexA-deGFP reporter 300 ng/reaction, LexA-Lam4 plasmid 800 ng/reaction) is 41400 a.u; the ratio of deGFP signal strength without and with DsRed (cell-free system, pLexA-deGFP reporter 300 ng/reaction, LexA-Lam4 plasmid 800 ng/reaction) came to 8.5.

Source of the values: patent US20200096507A1.
